Experiment: soluble on expression in E. coli; label from the status in PepcDB or PDB records

Sequence	soluble on expression in E. coli
MGSDKIHHHHHHMCMYVFVKERVESRSFIPEEKIFELLEKTKNPDPARVREIIQKSLDKNRLEPEETATLLNVEDPELLEEIFEAARTLKERIYGNRIVLFAPLYIGNDCINDCVYCGFRVSNKVVERRTLTEEQLKEEVKALVSQGHKRLIVVYGEHPNYSPEFIARTIDIVYNTKYGNGEIRRVNVNAAPQTIEGYKIIKSVGIGTFQIFQETYHRETYLKLHPRGPKSNYNWRLYGLDRAMMAGIDDVGIGALFGLYDWKFEVMGLLYHTIHLEERFGVGPHTISFPRIKPAINTPYSQKPEHVVSDEDFKKLVAIIRLSVPYTGMILTAREPAKLRDEVIKLGVSQIDAGSRIGIGAYSHKEDDEDRKRQFTLEDPRPLDQVMRSLLKEGFVPSFCTACYRAGRTGEHFMEFAIPGFVKNFCTPNALFTLQEYLCDYATEETRKVGEEVIERELQKMNPKIRERVREGLEKIKRGERDVRF	not soluble
MFPILETDRLILRQITDQDAEAIFACFSNDEVTRYYGLENMESIEQAISMIQTFAALYQEKRGIRWGIERRDTKELIGTIGFHALAQKHRRAEIGYEIIPEHWRNGFASEVISKVVSYGFSALGLSRIGAVVFTDNEASNRLLLKMGFQKEGVLRQYMYSKWDSI	not soluble
MVAKGRIIRVTGPLVVADGMKGAKMYEVVRVGELGLIGEIIRLEGDKAVIQVYEETAGVRPGEPVVGTGASLSVELGPGLLTSIYDGIQRPLEVIREKTGDFIARGVTAPALPRDKKWHFIPKAKVGDKVVGGDIIGEVPETSIIVHKIMVPPGIEGEIVEIAEEGDYTIEEVIAKVKTPSGEIKELKMYQRWPVRVKRPYKEKLPPEVPLITGQRVIDTFFPQAKGGTAAIPGPFGSGKTVTQHQLAKWSDAQVVIYIGCGERGNEMTDVLEEFPKLKDPKTGKPLMERTVLIANTSNMPVAAREASIYTGITIAEYFRDMGYDVALMADSTSRWAEALREISGRLEEMPGEEGYPAYLASKLAEFYERAGRVVTLGSDYRVGSVSVIGAVSPPGGDFSEPVVQNTLRVVKVFWALDADLARRRHFPAINWLTSYSLYVDAVKDWWHKNIDPEWKAMRDKAMALLQKESELQEIVRIVGPDALPERERAILLVARMLREDYLQQDAFDEVDTYCPPEKQVTMMRVLLNFYDKTMEAINRGVPLEEIAKLPVREEIGRMKFERDVSKIRSLIDKTNEQFEELFKKYGA	soluble
RSGKCVGDVIETVDSEEAMGDLKIVLAAIFARKFAGVNGEVTKEYLEGYKMLNIYITNACNLKCKHCFMLSGKKLENELTLEDWMKVLTSFKENGGEFVTFSGGEPLMFKNFPQIISHAHDLGLKSTVLSNGLLWSGKLIHDLALFIDEIQFSLDGVDEETNSMVRGSGHFEKVVDTIVKFANAGVKT	not soluble
SSMTSRYKRSIESATNVATELSKGNYDARTYGGYIRRSDKLGHAMNSLAIDLMEMTRTQEMQRDRLLTVIENIGSGLIMIDGRGFINLVNRSYAKQFHINPNHMLRRLYHDAFEHEEVIQLVEDIFMTETKKCKLLRLPIKIERRYFEVDGVPIMGPDDEWKGIVLVFHDMTETKKLEQMRKDFVANVSHELKTPITSIKGFTETLLDGAMEDKEALSEFLSIILKESERLQSLVQDLLDLSKIEQQNFTLSIETFEPAKMLGEIETLLKHKADEKGISLHLNVPKDPQYVSGDPYRLKQVFLNLVNNALTYTPEGGSVAINVKPREKDIQIEVADSGIGIQKEEIPRIFERFYRVDKDRSRNSGGTGLGLAIVKHLIEAHEGKIDVTSELGRGTVFTVTLKRAAEKSA	not soluble
MGSDKIHHHHHHMTTKLDQLTSWLKERKITEVECLISDLTGIARGKISPTNKFIAEKGMRLPESVLLQTVTGDYVEDDIYYDLLDPADIDMVCRPDENAVFLVPWAIEPTAMVIHDTFDKLGNPIELSPRNILKRVLKMYADKGWRPIVAPEMEFYLTKRSDDPDYPLQAPVGRSGRQETGRQSFSIDAANEFDPLFEDMYDWCEAQGLDLDTLIHEEGTAQMEINFRHGDALDLADQILVFKRTMREAALKHNVAATFMAKPMTGEPGSAMHLHQSIVDVKTGKNIFSNADGTMSELFLHHIGGLQKFIPEVLPLFAPNVNSFRRFLPDTSAPVNVEWGEENRTVGLRVPDSSPENRRVENRLAGADANPYLALAASLLCGYIGMVEGIKPSAQVKGRGYERRNLRLPLTIEAALERMENCKPLEQYLGSKFISGYVAVKRAEHENFKRVISSWEREFLLLSV	not soluble
MSLAVNNIIKRIRNIMRQDAGINGDAQRIEQMTWMIFLKVYDTQEETWEYKASRESKTYQSIIPKDLRWRNWAVDEKDGEALTGEALLSFVNEKLFPALKNLPVDANTPRAKSIVQETFADLNQYMKNGTLLRQVVNIVNEIEFDDADDRHTFGDIYEGILKDLQSAGNAGEFYTPRALTDFIVMMLDPKLGETFGDFTSGTGGFLTSALNYMGKSVRSAEDGEKLQNAVVGQEWKPLPYLLSITNLLLHDIEAPNIANCDSLGTNVTDFKETDKVDVIGMNPPYGGSTEDSVKNNFPLRYRSSETADLFIALIMYRLKAGGRCGVIIPDGFLFGTDGAKLALKENLLRKFNLHTIIRLPGSIFSPYTSIATNILFFNNEEAEGCEEGFKTKETWFYRLDMPEGYKHFSKNKPMKVEHTLPIQEWWNDRKEIVSSETGEKSRVFTAQQLLDLNCNFDQCKFPKEEEEILPPAEGHHHHHH	soluble
MLSSSPASCTSPSPGTDNPDKKVHWASEKRRRASSTDSESKTHLDISKLPRSRRPSRLTVKYDRGHLQRWLEMEQWVDAQVQELFQGQEESSEPEIDLEALMDLSTEDQRTQLEAILQDCPGNREPFISELLSQLKRLRRLSRPSK	soluble
MTTSPTENAHAVVLGGSVAGCLAAAVLARRYPRVTIVEKSDFHNETGARQSVPQEHHVHLLLQRGKDIMEAIFPGFLSELEQAGALVADLGHDVKWYQAGRWKNRYRCGIHAHYCSRRLIDTHLRRRVARLPQVTVLSRTQMEGLDFRRDGDRLAVGGVRLRNDDHAWTLDADALVDASGRGTRLPGWLETAGLGAVDKSMVKTDLGYASRIYRRRPEFANQWKVLLVLATPPHQRAMGVISPIEGDRWMVTTGGWFGHYPDRDPNAFLKALAALPMPDIHQVIRDAEPLSDVSVFRMPGSLRRHYDRLPRWPDGLLVVGDALASMNPLYSQGMTLCALEAECLDENLDALLAGGLRCQELQEKLCRALDPAWQMAVTEDLRFPETEGERGWRTRFLHWYGAGLTRLSAYHRGALEAQIGVSNLIVNPSRLYAPPIAARIVLGSLLPGEARTLEHHHHHH	not soluble
SLKINQEEDTVSSEKNKLCDNNNNNNMVHTRHIYNVCELNKCLRENKLIPYNNIYKMKHLYLNILDTFDENILKHVNKAHLFIDSVIQKKKNILIHSMAGISRCSSIILSYVSKKNKKGIEYNFNLLKSKYPFAHPNENFYRQLLLYEKMNYTLDGCTDYHNIYK	not soluble
MLERTQVFVDTSYLLASFYNSWETGARAQLEIDLPEVVGVLGRMIEQQLKQPVQRQMWYDGIPDSGPHRYQRALRTCDGVQLRAGQLIEWGERRTQKAVDTRLVADLVLAGVRGQCSDIVLVSGDADMIPGVQEAANAGLRVHLYGFGWDSMSSQLRHCCDTTTILDPREDFAECMQLQVLEGPLPPVVRVKPINDAEPIEDLDFTPVPGVASPFEEVSAKDEKFSPRPSEPAEALSEQVCEAQYEISKHEGQTADSGEITESFEAAEIKVTEFFGEPAAPVAESGVEAPTPEAPTVPEAAKPTPAKPKTPKAEPQKQESPKPGTPKPKAPSPADIPPKAPADTEEHSEVEAEIEDSRPKIPSPSMMAPRRKLRSRYVPLPNEVWATAGFQTPYDVGQQYASWWFENAATSTQRDQAHLLSGGGLPPEIDRPLLQFACETLHEYTLTEAQRVALRDGFHSGIRGVLLNQRDS	soluble
MKKIKTISTLVAGLGIAFLGHTTHADAAENNNQQQSTHNYSTTEVSFSNSGNLYTSGQCTWYVYDKTGGKIGSTWGNANSWATAAQAAGFTVNNTPEEGAIMQSSEGAFGHVAFVESVNNDGSITVSEMNYDGGPFAISTRTISASEASSYNYIHLNLEHHHHHH	not soluble
FLEVNYYSRVLGMNRVMNVLLPEESDHNPNWTNDSLKDLPVLYLLHGMSGNHFDWQRKSDIERLLRQTKLAVIMPAADLAWYTNTDYGMNYFDAISQELPRKVASLFPQISTKRKKHFVAGMSMGGYGAFKLAFSSSYFSYAASLSGTLISSLNYPGFLDMEKQAYWKGIFGDLDKFSGSKNDIFELAKRQSNTGIELPKLYAWVGQQDFFYGANEKAIPRLRKMGYDVSYETNPGDHEWYYWSKYIENILQWLPINYQAEKRLS	not soluble
MGSDKIHHHHHHMKNTELEQLINEKLNSAAISDYAPNGLQVEGKETVQKIVTGVTASQALLDEAVRLGADAVIVHHGYFWKGESPVIRGMKRNRLKTLLANDINLYGWHLPLDAHPELGNNAQLAALLGITVMGEIEPLVPWGELTMPVPGLELASWIEARLGRKPLWCGDTGPEVVQRVAWCTGGGQSFIDSAARFGVDAFITGEVSEQTIHSAREQGLHFYAAGHHATERGGIRALSEWLNENTDLDVTFIDIPNPA	not soluble
MGSDKIHHHHHHMSAELNQPVPRPGILDIAAYVPGKEHVDGVAKVYKLSSNETPLGPSPKAIEAFSAAASHLEIYPDGQAIALRQAIADVHGLNIANILCGNGSDELLGLLCHVYLGAGDEAIITEHGFLVYKIQIMGAGATPVTVKEKDCVVDVDAILAAVTPKTKMVFLANPGNPTGTYVPVAEIRRLQAGLPKHVVLVLDAAYAEYVRKNDYEAGLELVSGNRNVVMTRTFSKVYGLAALRVGWMYAPVDIIDALNRVRGPFNMSAPAIAAGAAAIRDQAFVQKAVAHNALWMEKLVTTFTGLGLTVTPSVANFILIHFPDQDGKRATDADEFLSRRGYILRAVRGYGFPNALRMTVGSEEANLGVIAALTEFMGQA	not soluble
MGSDKIHHHHHHMRKDISTNDKDINDLFLKVVDLVTQARERVATAINIAEVFTKFHIGQYIVEYEQKGETRAEYGKAVLKELSKRLTDRLGDGWSYSTLKNIRQFYIVFSKGLTSGCPKSSQKANQWLADYSKAEEHISEPTFALSWSHYLILMRVENPDARSFYEIECTQQQWSKRQLSRQVGSCLYERLALSRNKDEVMRLAKEGQTIGKPSDIIKNPITLEFLGLKPDAVYSESKLENAIINKMQQFLLELGKGFLFEARQKRFTFDEQHFFVDLVFYNRLLQCYVLIDLKIDKLTHQDLGQMQMYVNYYDRYVKQDFEKPTIGILLCKEKNDALVELTLPKDANIYASAYQLYLPNKALLQAKVKEWIEEFEENEELKKLEENE	not soluble
VNQQLNSATKLFSVKLGATRVIYHAGTAGATLSVSNPQNYPILVQSSVKAADKSSPAPFLVMPPLFRLEANQQSQLRIVRTGGDMPTDRETLQWVCIKAVPPENEPSDTQAKGATLDLNLSINACDKLIFRPDAVKGTPEDVAGNLRWVETGNKLKVENPTPFYMNLASVTVGGKPITGLEYVPPFADKTLNMPGSAHGDIEWRVITDFGGESHPFHYVLK	soluble
MWYQKTLTLSAKSRGFHLVTDEILNQLADMPRVNIGLLHLLLQHTSASLTLNENCDPTVRHDMECFFLRTVPDNGNYEHDYEGADDMPSHIKSSMLGTSLVLPVHKGRIQTGTWQGIWLGEHRIHGGSRRIIATLQGELEHHHHHH	not soluble
